Data reported in patent publication US20230002480A1.

Experiments:
Test in all cases: cell-based or functional assay
[1] = target: HIV-1 Env of pseudovirus 235-47 (HIV-1)
[2] = target: HIV-1 Env of pseudovirus ZM53M.PB12 (HIV-1)
[3] = target: HIV-1 Env of pseudovirus HIV-16055-2.3 (HIV-1)
[4] = target: HIV-1 Env of pseudovirus T250-4 (HIV-1)
[5] = target: HIV-1 Env of pseudovirus 6952.v1.c20 (HIV-1)
[6] = target: HIV-1 Env of pseudovirus 191955_A11 (HIV-1)
[7] = target: HIV-1 Env of pseudovirus TRJO4551.58 (HIV-1)
[8] = target: HIV-1 Env of pseudovirus 9004SS_A3_4 (HIV-1)
[9] = target: HIV-1 Env of pseudovirus RHPA4259.7 (HIV-1)
[10] = target: HIV-1 Env of pseudovirus 7030102001E5(Rev-) (HIV-1)
[11] = target: HIV-1 Env of pseudovirus CAAN5342.A2 (HIV-1)
[12] = target: HIV-1 Env of pseudovirus 3103.v3.c10 (HIV-1)
[13] = target: HIV-1 Env of pseudovirus BJOX028000.10.3 (HIV-1)
[14] = target: HIV-1 Env of pseudovirus P1981_C5_3 (HIV-1)
[15] = target: HIV-1 Env of pseudovirus Ce0682_E4 (HIV-1)
[16] = target: HIV-1 Env of pseudovirus ZM109F.PB4 (HIV-1)
[17] = target: HIV-1 Env of pseudovirus C1080.c03 (HIV-1)
[18] = target: HIV-1 Env of pseudovirus MS208.A1 (HIV-1)
[19] = target: HIV-1 Env of pseudovirus 3016.v5.c45 (HIV-1)
[20] = target: HIV-1 Env of pseudovirus HIV-001428-2.42 (HIV-1)
[21] = target: HIV-1 Env of pseudovirus 263-8 (HIV-1)
[22] = target: HIV-1 Env of pseudovirus Ce1176_A3 (HIV-1)
[23] = target: HIV-1 Env of pseudovirus 231966.c02 (HIV-1)
[24] = target: HIV-1 Env of pseudovirus Ce2060_G9 (HIV-1)
[25] = target: HIV-1 Env of pseudovirus T257-31 (HIV-1)
[26] = target: HIV-1 Env of pseudovirus X1632_S2_B10 (HIV-1)
[27] = target: HIV-1 Env of pseudovirus 928-28 (HIV-1)
[28] = target: HIV-1 Env of pseudovirus Ce2010_F5 (HIV-1)
[29] = target: HIV-1 Env of pseudovirus 1012_11_TC21_3257 (HIV-1)
[30] = target: HIV-1 Env of pseudovirus BJOX009000.02.4 (HIV-1)
[31] = target: HIV-1 Env of pseudovirus CNE21 (HIV-1)
[32] = target: HIV-1 Env of pseudovirus 3365.v2.c2 (HIV-1)
[33] = target: HIV-1 Env of pseudovirus ZM197M.PB7 (HIV-1)
[34] = target: HIV-1 Env of pseudovirus X1254_c3 (HIV-1)
[35] = target: HIV-1 Env of pseudovirus 6240_08_TA5_4622 (HIV-1)
[36] = target: HIV-1 Env of pseudovirus 211-9 (HIV-1)

8ANC195 (antibody) gave an IC50, titer in TZM.bl cells [1] of over 50 µg/mL, an IC80, titer in TZM.bl cells [1] of over 50 µg/mL and a neutralization IC50 [2] of over 30 µg/mL. It also gave a neutralization IC80 [2] of over 30 µg/mL, a neutralization IC50 [3] of 15.3 µg/mL and a neutralization IC80 [3] of over 50 µg/mL. It also gave an IC50, titer in TZM.bl cells [4] of over 50 µg/mL, an IC80, titer in TZM.bl cells [4] of over 50 µg/mL and an IC50, titer in TZM.bl cells [5] of 1.38 µg/mL. The IC80, titer in TZM.bl cells [5] was 7.22 µg/mL, the neutralization IC50 [6] was over 50 µg/mL and the neutralization IC80 [6] was over 50 µg/mL. For the same substance, the neutralization IC50 [7] was 0.19 µg/mL, the neutralization IC80 [7] was 1.17 µg/mL and the neutralization IC50 [8] was 0.17 µg/mL. It also gave a neutralization IC80 [8] of 0.81 µg/mL, a neutralization IC50 [9] of 0.34 µg/mL and a neutralization IC80 [9] of 1.56 µg/mL. For the same substance, the neutralization IC50 [10] was 0.86 µg/mL, the neutralization IC80 [10] was 8.32 µg/mL and the neutralization IC50 [11] was over 50 µg/mL. For the same substance, the neutralization IC80 [11] was over 50 µg/mL, the IC50, titer in TZM.bl cells [12] was 48.1 µg/mL and the IC80, titer in TZM.bl cells [12] was over 50 µg/mL. It also gave an IC50, titer in TZM.bl cells [13] of 0.45 µg/mL, an IC80, titer in TZM.bl cells [13] of 2.83 µg/mL and an IC50, titer in TZM.bl cells [14] of 0.14 µg/mL. For the same substance, the IC80, titer in TZM.bl cells [14] was 1.15 µg/mL, the neutralization IC50 [15] was 0.2 µg/mL and the neutralization IC80 [15] was 1.29 µg/mL. It also gave a neutralization IC50 [16] of over 30 µg/mL, a neutralization IC80 [16] of over 30 µg/mL and an IC50, titer in TZM.bl cells [17] of 0.17 µg/mL. The IC80, titer in TZM.bl cells [17] was 1.12 µg/mL, the neutralization IC50 [18] was over 50 µg/mL and the neutralization IC80 [18] was over 50 µg/mL. It also gave an IC50, titer in TZM.bl cells [19] of 0.87 µg/mL, an IC80, titer in TZM.bl cells [19] of over 50 µg/mL and a neutralization IC50 [20] of over 50 µg/mL. It also gave a neutralization IC80 [20] of over 50 µg/mL, a neutralization IC50 [21] of over 50 µg/mL and a neutralization IC80 [21] of over 50 µg/mL. For the same substance, the neutralization IC50 [22] was 4.45 µg/mL, the neutralization IC80 [22] was 35.2 µg/mL and the IC50, titer in TZM.bl cells [23] was 0.54 µg/mL. The IC80, titer in TZM.bl cells [23] was 2.98 µg/mL, the neutralization IC50 [24] was 6.2 µg/mL and the neutralization IC80 [24] was over 50 µg/mL. The neutralization IC50 [25] was 0.32 µg/mL, the neutralization IC80 [25] was 3.89 µg/mL and the IC50, titer in TZM.bl cells [26] was 0.47 µg/mL. For the same substance, the IC80, titer in TZM.bl cells [26] was 4.11 µg/mL, the neutralization IC50 [27] was over 50 µg/mL and the neutralization IC80 [27] was over 50 µg/mL. For the same substance, the neutralization IC50 [28] was over 50 µg/mL, the neutralization IC80 [28] was over 50 µg/mL and the neutralization IC50 [29] was over 50 µg/mL. It also gave a neutralization IC80 [29] of over 50 µg/mL, an IC50, titer in TZM.bl cells [30] of 0.64 µg/mL and an IC80, titer in TZM.bl cells [30] of 3.09 µg/mL. For the same substance, the neutralization IC50 [31] was 0.27 µg/mL, the neutralization IC80 [31] was 1.52 µg/mL and the neutralization IC50 [32] was over 30 µg/mL. It also gave a neutralization IC80 [32] of over 30 µg/mL, a neutralization IC50 [33] of 23.4 µg/mL and a neutralization IC80 [33] of over 50 µg/mL. The IC50, titer in TZM.bl cells [34] was 6.95 µg/mL, the IC80, titer in TZM.bl cells [34] was 6.95 µg/mL and the neutralization IC50 [35] was over 50 µg/mL. For the same substance, the neutralization IC80 [35] was over 50 µg/mL, the IC50, titer in TZM.bl cells [36] was 1.34 µg/mL and the IC80, titer in TZM.bl cells [36] was 8.43 µg/mL.
